Measured values reported in the supplement of paper PMC9876800.

Test system: peptide library, one residue held at a place counted from the S/T acceptor
Experiment: relative phosphorylation of the sub-library (ratio to the mean residue at this position); higher = residue favoured
How it was run: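 Relative sub-library phosphorylation, a ratio to the mean residue at that position, was obtained by phosphorimaging and densitometry of spots on streptavidin membranes. Before capture, purified recombinant kinases were incubated for 90 min under kinase-specific conditions with 50 μM biotinylated degenerate peptide sub-libraries and 50 μM ATP spiked with γ-32P-ATP. Each sub-library fixed one residue at one position around a central Ser/Thr.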

Sequence of CDK19, construct: Full length, human (Q9BWU1 whole entry, looked up): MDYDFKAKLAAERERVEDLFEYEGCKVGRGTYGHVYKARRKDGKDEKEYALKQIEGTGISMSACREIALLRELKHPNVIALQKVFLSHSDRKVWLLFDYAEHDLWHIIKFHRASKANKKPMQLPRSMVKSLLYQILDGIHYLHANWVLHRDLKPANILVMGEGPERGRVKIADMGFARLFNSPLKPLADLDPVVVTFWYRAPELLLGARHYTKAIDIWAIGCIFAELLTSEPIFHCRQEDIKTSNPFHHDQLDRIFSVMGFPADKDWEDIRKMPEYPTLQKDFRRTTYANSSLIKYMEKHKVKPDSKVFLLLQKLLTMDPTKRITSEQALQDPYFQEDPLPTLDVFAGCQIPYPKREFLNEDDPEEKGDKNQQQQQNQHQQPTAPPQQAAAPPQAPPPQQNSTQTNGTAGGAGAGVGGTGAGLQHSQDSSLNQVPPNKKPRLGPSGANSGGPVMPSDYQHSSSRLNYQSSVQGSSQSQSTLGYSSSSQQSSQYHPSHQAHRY
Sequence of CDK17, construct: Full length, human (Q00537 whole entry, looked up): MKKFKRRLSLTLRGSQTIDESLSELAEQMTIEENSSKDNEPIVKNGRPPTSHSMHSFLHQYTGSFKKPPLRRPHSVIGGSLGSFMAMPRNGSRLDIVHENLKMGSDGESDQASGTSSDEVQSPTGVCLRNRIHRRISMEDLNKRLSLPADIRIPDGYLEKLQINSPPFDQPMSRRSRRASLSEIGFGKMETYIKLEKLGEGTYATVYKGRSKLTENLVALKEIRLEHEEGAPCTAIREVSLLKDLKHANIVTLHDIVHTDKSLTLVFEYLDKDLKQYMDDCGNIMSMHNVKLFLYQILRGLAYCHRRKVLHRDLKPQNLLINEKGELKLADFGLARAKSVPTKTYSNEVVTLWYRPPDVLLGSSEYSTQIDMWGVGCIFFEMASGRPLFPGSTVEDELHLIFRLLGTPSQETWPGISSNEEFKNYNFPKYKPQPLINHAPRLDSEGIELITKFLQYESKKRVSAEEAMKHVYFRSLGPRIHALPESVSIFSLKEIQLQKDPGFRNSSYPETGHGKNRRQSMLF
Sequence of CILK1, construct: Full length, human (Q9UPZ9 whole entry, looked up): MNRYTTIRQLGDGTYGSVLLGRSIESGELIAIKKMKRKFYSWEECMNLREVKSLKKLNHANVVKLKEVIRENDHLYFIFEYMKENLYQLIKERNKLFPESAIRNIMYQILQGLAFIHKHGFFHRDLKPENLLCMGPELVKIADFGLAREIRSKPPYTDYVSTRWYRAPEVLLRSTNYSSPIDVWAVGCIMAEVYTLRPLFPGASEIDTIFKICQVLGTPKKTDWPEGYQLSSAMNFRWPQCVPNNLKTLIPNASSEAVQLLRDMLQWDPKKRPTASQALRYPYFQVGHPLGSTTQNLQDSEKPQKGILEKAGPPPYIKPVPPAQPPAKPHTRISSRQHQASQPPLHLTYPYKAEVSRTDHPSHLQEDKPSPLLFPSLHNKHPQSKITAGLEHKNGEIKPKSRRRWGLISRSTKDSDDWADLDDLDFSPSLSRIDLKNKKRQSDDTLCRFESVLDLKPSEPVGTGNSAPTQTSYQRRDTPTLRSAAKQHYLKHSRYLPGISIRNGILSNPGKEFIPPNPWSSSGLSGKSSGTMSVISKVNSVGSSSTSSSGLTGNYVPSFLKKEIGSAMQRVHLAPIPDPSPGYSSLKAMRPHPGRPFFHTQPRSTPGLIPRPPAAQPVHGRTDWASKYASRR
Sequence of CDKL5, construct: aa1-352, mouse (Q3UTQ8 1-352, looked up): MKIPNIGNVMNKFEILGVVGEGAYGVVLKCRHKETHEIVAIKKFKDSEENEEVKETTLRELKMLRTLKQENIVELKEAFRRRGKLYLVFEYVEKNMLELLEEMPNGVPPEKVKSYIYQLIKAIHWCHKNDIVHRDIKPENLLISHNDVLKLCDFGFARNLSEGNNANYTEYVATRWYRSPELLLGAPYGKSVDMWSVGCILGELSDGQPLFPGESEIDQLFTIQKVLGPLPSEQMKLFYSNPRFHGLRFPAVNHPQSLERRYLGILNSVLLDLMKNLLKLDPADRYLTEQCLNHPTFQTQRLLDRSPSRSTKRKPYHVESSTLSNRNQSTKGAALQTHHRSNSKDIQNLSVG

CDK17, construct: Full length, human (from UniProt Q00537)
relative phosphorylation
Details	at +1	at +2	at +3	at +4	at -1	at -2	at -3	at -4	at -5
A fixed	0.203	0.683	0.739	1	0.979	1.25	0.977	0.99	1.07
D fixed	0.116	0.603	0.323	0.54	0.654	0.496	0.806	0.95	0.96
E fixed	0.109	0.412	0.294	0.427	0.49	0.585	0.902	1.02	0.845
F fixed	0.152	0.697	0.959	0.828	0.644	0.742	0.666	0.802	0.856
G fixed	0.781	0.865	0.862	1.86	1.93	0.898	1.62	1.19	1.01
H fixed	0.152	1.16	0.66	1.14	0.801	0.831	0.907	0.98	1.18
I fixed	0.157	0.826	1.48	0.823	0.251	0.872	0.68	0.836	0.806
K fixed	0.236	2.09	0.904	1.32	1.61	0.701	0.945	1.34	1.49
L fixed	0.17	1.03	2.01	0.797	0.689	0.962	0.675	0.779	0.98
M fixed	0.17	1.02	1.99	0.99	1.06	1.13	0.881	0.822	0.861
N fixed	0.174	1.15	0.854	0.987	1.03	1	1.21	1.37	1.02
P fixed	13.6	0.758	1.66	0.889	1.69	3.2	2.12	1.41	1.06
Q fixed	0.195	1	0.962	0.962	1.28	0.893	1.03	0.933	0.834
R fixed	0.191	1.92	0.783	1.52	1.51	0.875	1.13	0.924	1.01
V fixed	0.222	0.863	1.07	0.77	0.403	0.859	0.782	0.605	0.698
W fixed	0.181	0.879	0.791	1.09	0.999	0.887	0.855	1.14	1.19
Y fixed	0.149	1.05	0.65	1.06	0.97	0.824	0.818	0.907	1.12
pThr fixed	0.514	0.699	0.939	0.451	0.438	0.909	1.06	1.04	0.832
pTyr fixed	0.707	0.491	0.903	0.492	0.452	0.788	0.883	0.7	0.88

CDK19, construct: Full length, human (from UniProt Q9BWU1)
relative phosphorylation
Details	at +1	at +2	at +3	at +4	at -1	at -2	at -3	at -4	at -5
A fixed	0.247	1.28	1.17	0.978	1.14	1.69	1.08	1.05	0.905
D fixed	0.112	0.577	0.659	1.05	0.698	0.518	0.695	0.93	1.26
E fixed	0.114	0.592	0.564	0.915	0.416	0.463	0.881	1.1	1.23
F fixed	0.193	0.915	0.784	0.971	0.947	0.465	1.18	1.22	1.42
G fixed	0.865	1.39	1.39	1.15	1.64	0.829	1.27	1.07	1.02
H fixed	0.295	1.02	1.1	0.988	0.929	0.589	0.958	0.997	1.11
I fixed	0.378	0.721	0.633	0.857	0.238	0.935	0.602	1.01	0.863
K fixed	0.198	1.08	0.651	0.736	0.93	0.276	0.61	0.73	0.702
L fixed	0.271	1.09	0.685	0.948	0.948	1.09	0.67	1.04	0.878
M fixed	0.32	1.22	1.1	1.1	1.5	0.922	1.39	1.07	0.895
N fixed	0.371	0.959	1.33	1.02	0.918	0.658	1.26	0.741	0.879
P fixed	11.8	0.913	2.42	1.28	1.61	5.16	1.39	0.878	0.771
Q fixed	0.314	1.1	0.892	1.01	1	0.846	1.16	0.881	0.801
R fixed	0.186	1.51	0.934	0.919	1.53	0.393	0.674	0.875	0.844
V fixed	0.92	0.725	0.903	0.945	0.425	1.25	0.583	0.786	0.685
W fixed	0.248	1	0.881	1.24	1.01	0.498	1.45	1.34	1.08
Y fixed	0.196	0.925	0.918	0.888	1.11	0.423	1.15	1.28	1.65
pThr fixed	0.381	0.481	0.581	0.829	0.318	0.651	0.695	0.915	0.914
pTyr fixed	0.344	0.83	0.733	0.902	0.505	0.427	0.718	1.03	1.12

CDKL5, construct: aa1-352, mouse (from UniProt Q3UTQ8)
relative phosphorylation
Details	at +1	at +2	at +3	at +4	at -1	at -2	at -3	at -4	at -5
A fixed	4.03	0.798	1.01	0.928	1.15	0.826	0.761	1.03	1.12
D fixed	0.548	0.548	0.634	0.701	0.779	0.559	0.412	0.625	0.556
E fixed	0.528	0.56	0.567	0.593	0.581	0.543	0.427	0.652	0.543
F fixed	0.588	0.903	1.03	1.02	0.782	0.665	0.49	0.866	1.07
G fixed	1.51	0.936	1.03	1.07	1.22	1.06	0.65	1.04	1.24
H fixed	0.679	1.32	0.979	1.19	0.916	0.7	0.61	0.928	1.17
I fixed	0.584	0.853	0.914	0.915	0.812	0.681	0.559	0.9	0.958
K fixed	0.861	1.77	1.42	1.25	1.49	0.976	0.826	1.46	1.24
L fixed	0.564	0.851	0.896	0.925	1.04	0.817	0.516	0.938	0.974
M fixed	0.6	0.832	0.876	0.94	1.08	0.718	0.531	0.997	0.972
N fixed	0.592	0.924	0.895	1.01	0.737	0.575	0.6	0.861	0.8
P fixed	2.33	0.697	1.07	1.09	1.11	5.09	0.758	1.1	0.909
Q fixed	0.704	0.903	0.926	0.909	1.1	0.693	0.658	1.03	0.854
R fixed	1.06	2.48	1.71	1.51	1.49	1.05	7.65	1.9	1.65
V fixed	0.624	0.757	1.01	0.798	0.885	0.715	0.538	0.977	0.88
W fixed	0.631	0.828	0.852	1.17	1.04	0.691	0.515	0.847	1.07
Y fixed	0.563	1.04	1.19	0.987	0.794	0.645	0.499	0.844	0.994
pThr fixed	0.581	0.54	0.682	0.65	0.567	0.588	0.456	0.785	0.702
pTyr fixed	0.522	0.61	0.636	0.626	0.53	0.534	0.458	0.652	0.594

CILK1, construct: Full length, human (from UniProt Q9UPZ9)
relative phosphorylation
Details	at +1	at +2	at +3	at +4	at -1	at -2	at -3	at -4	at -5
A fixed	1.36	0.902	0.838	1.02	0.938	0.718	0.93	1.04	0.881
D fixed	0.474	1.08	0.774	0.815	0.661	0.491	0.557	0.803	1.07
E fixed	0.464	0.744	0.722	0.771	0.577	0.498	0.498	0.825	0.875
F fixed	0.972	0.992	0.98	0.809	0.675	0.559	0.567	0.922	0.991
G fixed	1.22	1.08	1.23	1.29	1.22	0.82	0.734	1.08	1.03
H fixed	0.668	1.27	1.22	1.25	1.04	0.615	0.662	0.982	1.1
I fixed	0.907	0.936	0.834	0.819	0.497	0.55	0.556	0.768	0.802
K fixed	0.752	0.968	1.33	1.09	1.63	1.09	1.07	1.21	1.1
L fixed	0.818	0.859	0.957	0.933	0.755	0.616	0.556	0.835	0.953
M fixed	0.929	0.967	0.877	0.926	1.13	0.652	0.709	1.03	0.929
N fixed	0.601	1.13	0.883	1.09	1.15	0.619	0.651	0.92	0.917
P fixed	3.85	0.907	1.15	1.22	1.36	4.79	1.09	1.19	1.04
Q fixed	0.751	1.07	1.07	1.11	1.46	0.938	0.794	1.03	1
R fixed	0.79	1.02	1.25	1.04	1.53	2.19	5.98	1.55	1.32
V fixed	0.877	0.781	0.799	0.739	0.694	0.555	0.515	0.791	0.776
W fixed	0.87	1.12	1.02	1.03	0.835	0.69	0.609	1.14	1.15
Y fixed	0.702	1.17	1.08	1.05	0.845	0.604	0.522	0.89	1.06
pThr fixed	0.722	0.66	0.828	1.06	0.459	0.561	0.625	0.828	0.807
pTyr fixed	0.711	0.992	0.796	0.93	0.513	0.514	0.564	0.68	0.841
